The supplement of paper PMC10567573

B1: PLK2 (parent)
chain: YAELGQCSVFPATDAPEQFISQVT

Variants of: B1
Test: protein stability index of a GFP-peptide fusion (GPS, HEK-293T) (PSI 1-6); higher = more stable
Conditions: c terminus: a fixed tail appended
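Further: lentivirally expressed fusions sorted by FACS into six bins by GFP to DsRed ratio, PSI derived from sequencing read proportions per bin multiplied by bin number.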

Protein stability index of substitutions, site by site:
C7: N 1.89; M 2.23; S 1.87; V 2.32; A 3.2; P 3.45; I 1.97; E 3.9; R 2.57; Q 2.36; Y 2.12; K 2.23; T 2.87; H 1.91; G 2.63; D 3.04; L 1.69; W 2.5; F 1.78
L4: I 2.5; S 2.86; P 3.04; W 3.19; E 4.42; M 2.11; N 3.09; G 3.51; A 2.33; K 2.62; Q 3.62; R 1.99; D 3.96; T 3.05; V 2.9; Y 2.06; H 3.25; C 2.43; F 2.5
Q6: C 1.61; T 2.42; E 3.19; M 1.54; P 2.26; H 2.02; R 1.69; K 2.05; F 2.14; Y 1.95; W 2.89; V 1.94; L 2.03; I 1.57; A 2.18; G 2.04; N 2.28; S 2.42; D 3.3
F10: V 3.52; K 3.26; S 3.61; C 3.07; N 3.43; Y 2.4; M 3.06; Q 3.46; P 3.58; D 4.2; I 2.87; G 3.27; A 3.34; E 3.68; R 3.18; W 2.96; T 3.47; L 3.27; H 3.43
V9: L 1.98; Q 2.71; R 2.17; M 1.98; H 2.69; T 3.12; P 2.41; W 2.5; S 3.34; C 2.42; G 2.27; E 3.64; A 2.36; N 3.02; Y 2.02; K 2.88; I 2.62; F 1.67; D 4.25
E3: S 1.82; Y 1.85; W 1.66; V 2.31; T 1.98
P11: H 2.32; F 3.39; L 2.03; A 2.14; M 2.62; Q 1.91; V 2.33; D 1.64; E 1.33; S 2.56; Y 2.31; T 3.65; K 2.68; N 2.2; G 3.1; R 2.21; I 3.28; W 2.82
G5: W 3.46; C 2.24; D 3.32; H 2.52; T 2.28; L 1.57; S 2.14; E 3.81; N 2.47; F 2.5; R 2.02; Y 2.22; K 2.02; A 2.14; P 2.46; M 1.98; V 2.21; I 1.72; Q 2.53
S8: L 1.62; C 1.64; P 2.04; W 3.17; D 3.06; Q 2.08; M 1.66; N 2.57; E 3.17; I 1.75; T 2.28; H 1.83; Y 1.59; V 2; G 1.93; K 2.04; F 2.53; A 1.87; R 1.9
A12: H 1.93; I 2.07; E 3.42; C 1.87; F 2.18; L 1.66; M 1.72; N 2.33; G 2.39; D 2.81; K 2.13
